Each block holds one binder with its values, some of them ahead of it.
Experiments:
[1] = target: T1, recombinant murine GPC2 (R&D Systems) (mouse, UniProt Q8BKV1 22-556, limits assumed, labelled with Dylight488 in the flow cytometry assay of FIG. 9B; unlabelled in the ELISA); assay: ELISA, antigen coated on plate, anti-human Fc-HRP detection
T1 construct: Bought recombinant protein; also called mGPC2; mouse GPC2
T1 sequence (looked up): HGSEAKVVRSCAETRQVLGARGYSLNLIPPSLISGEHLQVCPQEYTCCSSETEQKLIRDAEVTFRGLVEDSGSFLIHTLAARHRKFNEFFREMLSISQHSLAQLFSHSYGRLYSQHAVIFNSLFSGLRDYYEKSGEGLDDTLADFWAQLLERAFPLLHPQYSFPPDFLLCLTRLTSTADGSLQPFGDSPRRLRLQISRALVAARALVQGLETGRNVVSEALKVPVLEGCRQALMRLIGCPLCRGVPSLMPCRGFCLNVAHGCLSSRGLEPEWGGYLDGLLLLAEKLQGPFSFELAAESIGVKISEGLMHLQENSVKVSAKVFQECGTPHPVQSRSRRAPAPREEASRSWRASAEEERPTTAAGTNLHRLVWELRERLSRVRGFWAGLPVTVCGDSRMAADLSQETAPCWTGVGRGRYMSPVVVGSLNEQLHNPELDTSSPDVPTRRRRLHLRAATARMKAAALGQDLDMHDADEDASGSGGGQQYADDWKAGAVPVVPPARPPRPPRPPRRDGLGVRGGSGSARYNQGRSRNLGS
Protocol: (§1) Fully human GPC2.19-IgG1 antibody was transiently expressed in 293 FreeStyle cells. Antibody was isolated from culture supernatant using protein A beads (Fisher). Isolated antibody was washed using PBS and Amicon […] filter columns. Binding of GPC2.19-IgG1 to GPC2 antigen was measured via ELISA. Recombinant human and mouse GPC2 antigens were purchased from R&D Systems, dry milk was from BioRad. All other chemicals were biological grade. High absorbance 96-well ELISA plates were coated with antigen overnight using […] stock solution per well at 2 μg/ml. Experiments were performed at 4° C. Antigen coated plates were blocked using 3% milk in PBS and 0.5% TWEEN® 20 for 2 h. Blocked plates were incubated with one of the tested primary antibodies for 1 hour, washed 5 times (BioTek plate washer) and incubated with anti-human Fc-HRP (Sigma) as the secondary antibody for 1 hour. Secondary antibody was washed five times, the HRP substrate TMB (Sigma) was added and plate was incubated for 3 minutes. TMB oxidation was stopped with 2.5 M sulfuric acid. Plates' absorbance was measured on plate reader (BioRad) at 415 nm.

[2] = target: T2, recombinant human GPC2 (R&D Systems) (human, UniProt Q8N158 24-554, limits assumed, labelled with Dylight488 or Dylight650 in the flow cytometry assays; unlabelled in the ELISA); assay: as above
T2 construct: extracellular domain; also called hGPC2; human Glypican-2
T2 sequence (looked up): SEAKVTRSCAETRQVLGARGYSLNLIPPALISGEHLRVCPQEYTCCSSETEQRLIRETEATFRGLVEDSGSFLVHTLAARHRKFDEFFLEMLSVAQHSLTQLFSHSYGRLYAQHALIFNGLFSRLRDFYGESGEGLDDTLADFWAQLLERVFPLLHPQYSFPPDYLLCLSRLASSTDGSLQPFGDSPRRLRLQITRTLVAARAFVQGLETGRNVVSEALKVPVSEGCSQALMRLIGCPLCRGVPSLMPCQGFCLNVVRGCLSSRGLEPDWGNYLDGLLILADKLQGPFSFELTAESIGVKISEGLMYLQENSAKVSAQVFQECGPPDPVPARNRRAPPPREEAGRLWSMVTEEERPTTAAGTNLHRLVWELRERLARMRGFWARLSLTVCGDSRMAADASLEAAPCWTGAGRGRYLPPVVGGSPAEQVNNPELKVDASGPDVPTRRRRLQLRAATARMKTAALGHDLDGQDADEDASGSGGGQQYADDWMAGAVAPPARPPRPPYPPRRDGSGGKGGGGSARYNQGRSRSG
Protocol: as §1

[3] = target: T2, recombinant human GPC2 (R&D Systems); assay: flow cytometry, CAR T cells stained with fluorescently labelled recombinant GPC2
Excerpt: Primary human T cells were isolated from healthy donors using the RosetteSep Human T cell Enrichment kit (Stem Cell Technologies) using buffy coats were derived from the Stanford Blood Center and processed according to the manufacturer's protocol using Lymphoprep density gradient medium and SepMate-50 tubes. Isolated T cells were cryopreserved in CryoStor CS10 cryopreservation medium (Stem Cell Technologies). Cryopreserved T cells were thawed and activated with Human T-Expander CD3/CD28 Dynabeads (Gibco) at a 3:1 beads: cell ratio in AIM-V media supplemented with 5% FBS, 10 mM HEPES, 2 mM 1-glutamine, 100 U/mL penicillin, and 100 μg/mL streptomycin (Gibco) and with 100 IU/ml of recombinant IL-2 (Preprotech). T cells were transduced with retroviral vector on days 2 and 3 post activation and anti-CD3/CD28 beads were removed on day 5. CAR T-cells were maintained at 0.3-1×10⁶ cells per mL in T cell medium with IL2. CAR expression was assessed by Flow Cytometry after incubation with soluble, recombinant, human GPC2 (R&D systems) labelled with Dylight488 or Dylight650. CAR T cells were used for in vitro assays or transferred into mice on day 10 post activation.
Data was collected with an LSR Fortessa X-20 (BD Bioscience) and analyzed using the FlowJo software. Cells were harvested, washed twice with FACS buffer (PBS supplemented with 2% FBS and 0.4% 0.5 M EDTA) and stained for 30 min in the dark on ice. Cells were washed 3 times with FACS buffer after each incubation step. Cells were gated on viable cells and singlet discrimination (FSC-A/FSC-H) was performed before assessment of antigen expression. Semiquantitative assessment of GPC2 antigen density in molecules per cell was estimated using the BD Quantibrite Kit per the manufacturer's protocol.

[4] = target: T1, recombinant murine GPC2 (R&D Systems); assay: flow cytometry, CAR T cells stained with Dylight488-labelled murine GPC2

B1: GPC2.19-IgG1 (antibody, V domains shown)
VH: QLQLQESGPGLVKPSETLSLTCTVSGGSISSSSYYWSWIRQPPGKGLEWIGSIYYSGSTYYNPSLKSRVTISVDTSKNQFSLKLSSVTAADTAVYYCARRVSGHPFDPWGQGTLVTVSS
VL: DIQMTQSPSSLSASIGDRVTITCQASQDISDYLNWYQQKPGKAPKLLIYDASNLETGVPSRFSGSGSGTDFTFTISSLQPEDVATYYCQQYDNLPITFGQGTKLEIKR
notes: also called GPC2.IgG1; fully human GPC2.19-IgG1 antibody
- EC50 [1]: ~1 nM
- EC50 [2]: ~1 nM

B2: GPC2.19VLVH.28H-28TM.41BBz (other)
chain: DIQMTQSPSSLSASIGDRVTITCQASQDISDYLNWYQQKPGKAPKLLIYDASNLETGVPSRFSGSGSGTDFTFTISSLQPEDVATYYCQQYDNLPITFGQGTKLEIKRGGGGSGGGASGGGGSQLQLQESGPGLVKPSETLSLTCTVSGGSISSSSYYWSWIRQPPGKGLEWIGSIYYSGSTYYNPSLKSRVTISVDTSKNQFSLKLSSVTAADTAVYYCARRVSGHPFDPWGQGTLVTVSSAAAIEVMYPPPYLDNEKSNGTIIHVKGKHLCPSPLFPGPSKPFWVLVVVGGVLACYSLLVTVAFIIFWVKRGRKKLLYIFKQPFMRPVQTTQEEDGCSCRFPEEEEGGCELRVKFSRSADAPAYKQGQNQLYNELNLGRREEYDVLDKRRGRDPEMGGKPRRKNPQEGLYNELQKDKMAEAYSEIGMKGERRRGKGHDGLYQGLSTATKDTYDALHMQALPPR
notes: also called GPC2.19 CAR with CD28 hinge-transmembrane domains and 41BB costimulatory domain
- binding result [3]: binds

B3: GPC2.19VLVH.8aH-8aTM.41BBz (other)
chain: DIQMTQSPSSLSASIGDRVTITCQASQDISDYLNWYQQKPGKAPKLLIYDASNLETGVPSRFSGSGSGTDFTFTISSLQPEDVATYYCQQYDNLPITFGQGTKLEIKRGGGGSGGGASGGGGSQLQLQESGPGLVKPSETLSLTCTVSGGSISSSSYYWSWIRQPPGKGLEWIGSIYYSGSTYYNPSLKSRVTISVDTSKNQFSLKLSSVTAADTAVYYCARRVSGHPFDPWGQGTLVTVSSATTTPAPRPPTPAPTIASQPLSLRPEACRPAAGGAVHTRGLDFACDIYIWAPLAGTCGVLLLSLVITLYCKRGRKKLLYIFKQPFMRPVQTTQEEDGCSCRFPEEEEGGCELRVKFSRSADAPAYKQGQNQLYNELNLGRREEYDVLDKRRGRDPEMGGKPRRKNPQEGLYNELQKDKMAEAYSEIGMKGERRRGKGHDGLYQGLSTATKDTYDALHMQALPPR
notes: also called GPC2.19 CAR; GPC2.8aTM.41BBz CAR
- binding result [3]: binds
- binding result [4]: binds

B4: GPC2.19 CAR in VH-L-VL orientation with CD8a hinge-transmembrane domain and 41BBz signaling domain (other)
chain: QLQLQESGPGLVKPSETLSLTCTVSGGSISSSSYYWSWIRQPPGKGLEWIGSIYYSGSTYYNPSLKSRVTISVDTSKNQFSLKLSSVTAADTAVYYCARRVSGHPFDPWGQGTLVTVSSGGGGSGGGASGGGGSDIQMTQSPSSLSASIGDRVTITCQASQDISDYLNWYQQKPGKAPKLLIYDASNLETGVPSRFSGSGSGTDFTFTISSLQPEDVATYYCQQYDNLPITFGQGTKLEIKRATTTPAPRPPTPAPTIASQPLSLRPEACRPAAGGAVHTRGLDFACDIYIWAPLAGTCGVLLLSLVITLYCKRGRKKLLYIFKQPFMRPVQTTQEEDGCSCRFPEEEEGGCELRVKFSRSADAPAYKQGQNQLYNELNLGRREEYDVLDKRRGRDPEMGGKPRRKNPQEGLYNELQKDKMAEAYSEIGMKGERRRGKGHDGLYQGLSTATKDTYDALHMQALPPR
notes: also called GPC2.19 VH-L-VL CAR
- binding result [3]: binds

B5: GPC2.19VLVH.28H-28TM.28z (other)
chain: DIQMTQSPSSLSASIGDRVTITCQASQDISDYLNWYQQKPGKAPKLLIYDASNLETGVPSRFSGSGSGTDFTFTISSLQPEDVATYYCQQYDNLPITFGQGTKLEIKRGGGGSGGGASGGGGSQLQLQESGPGLVKPSETLSLTCTVSGGSISSSSYYWSWIRQPPGKGLEWIGSIYYSGSTYYNPSLKSRVTISVDTSKNQFSLKLSSVTAADTAVYYCARRVSGHPFDPWGQGTLVTVSSAAAIEVMYPPPYLDNEKSNGTIIHVKGKHLCPSPLFPGPSKPFWVLVVVGGVLACYSLLVTVAFIIFWVRSKRSRLLHSDYMNMTPRRPGPTRKHYQPYAPPRDFAAYRSRVKFSRSADAPAYQQGQNQLYNELNLGRREEYDVLDKRRGRDPEMGGKPRRKNPQEGLYNELQKDKMAEAYSEIGMKGERRRGKGHDGLYQGLSTATKDTYDALHMQALPPR
notes: also called GPC2.28TM.28z CAR; GPC2.19 CAR with CD28 hinge-transmembrane domains and CD28 costimulatory domain
- binding result [3]: binds

Results, then the binder that gave them:

- binding result [3]: binds
B6: GPC2.27 CAR in VH-L-VL orientation with CD8a hinge-transmembrane domain and 41BBz signaling domain (other)
chain: EVQLVESGPGLVKPSETLSLTCAVSGYSISSGYYWGWIRQPPGKGLEWIGSIYHSGSTYYNPSLKSRVTISVDTSKNQFSLKLSSVTAADTAVYYCASLPSRGGFDYWGQGTLVTVSSGGGGSGGGASGGGGSEIVMTQSPATLSASVGDRVTIACRASQTISRYLNWYQQKPGKAPKLLIYAASSLQSGVSSRFSGSGSGTEFTLTISSLQPEDFATYFCQQTYSPPITFGQGTRLEIKRATTTPAPRPPTPAPTIASQPLSLRPEACRPAAGGAVHTRGLDFACDIYIWAPLAGTCGVLLLSLVITLYCKRGRKKLLYIFKQPFMRPVQTTQEEDGCSCRFPEEEEGGCELRVKFSRSADAPAYKQGQNQLYNELNLGRREEYDVLDKRRGRDPEMGGKPRRKNPQEGLYNELQKDKMAEAYSEIGMKGERRRGKGHDGLYQGLSTATKDTYDALHMQALPPR
notes: also called GPC2.27 VH-L-VL CAR

- binding result [3]: binds
B7: GPC2.27 CAR in VL-L-VH orientation with CD8a hinge-transmembrane domain and 41BBz signaling domain (other)
chain: EIVMTQSPATLSASVGDRVTIACRASQTISRYLNWYQQKPGKAPKLLIYAASSLQSGVSSRFSGSGSGTEFTLTISSLQPEDFATYFCQQTYSPPITFGQGTRLEIKRGGGGSGGGASGGGGSEVQLVESGPGLVKPSETLSLTCAVSGYSISSGYYWGWIRQPPGKGLEWIGSIYHSGSTYYNPSLKSRVTISVDTSKNQFSLKLSSVTAADTAVYYCASLPSRGGFDYWGQGTLVTVSSATTTPAPRPPTPAPTIASQPLSLRPEACRPAAGGAVHTRGLDFACDIYIWAPLAGTCGVLLLSLVITLYCKRGRKKLLYIFKQPFMRPVQTTQEEDGCSCRFPEEEEGGCELRVKFSRSADAPAYKQGQNQLYNELNLGRREEYDVLDKRRGRDPEMGGKPRRKNPQEGLYNELQKDKMAEAYSEIGMKGERRRGKGHDGLYQGLSTATKDTYDALHMQALPPR
notes: also called GPC2.27 VL-L-VH CAR

Reference: patent US20260209384A1 (Stanford University, published 2026)
